The target of assay [1] is human CD20 (human) (UniProt P11836). As to the kind of experiment: QIFIKIT-based quantitative flow cytometry on Cyno iPS-EPI-1504-1_Gluc/CD20 (exogenous CD20).
Assay [2] shares this target. As to the kind of experiment: QIFIKIT-based quantitative flow cytometry on Cyno iPS-EPI-1504-3_Gluc/CD20 (exogenous CD20). (A flow cytometer gives signals particle by particle.)
The target is the same in assay [3]. As to the kind of experiment: QIFIKIT-based quantitative flow cytometry on Cyno iPS-EPI-1509-1_Gluc/CD20 (exogenous CD20).
Assay [4] has the same target. As to the kind of experiment: QIFIKIT-based quantitative flow cytometry on Daudi cells (human Burkitt's lymphoma line, endogenous CD20).

Sequence of UniProt P11836 (P11836 whole entry): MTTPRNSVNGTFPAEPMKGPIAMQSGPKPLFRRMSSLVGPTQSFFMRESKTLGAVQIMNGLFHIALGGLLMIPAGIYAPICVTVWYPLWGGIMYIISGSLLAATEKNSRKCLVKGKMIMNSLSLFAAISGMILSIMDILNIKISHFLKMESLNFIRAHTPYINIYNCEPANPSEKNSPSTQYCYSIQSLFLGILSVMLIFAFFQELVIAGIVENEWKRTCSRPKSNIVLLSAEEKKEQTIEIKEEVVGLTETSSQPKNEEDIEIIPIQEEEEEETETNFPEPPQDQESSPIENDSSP

anti-CD20-FITC (clone 2H7) (antibody): the CD20 Surface Expression (Copies/Cell) with human CD20 (human) [1] worked out at 1.38e+06 Copies/Cell; in the assay with human CD20 (human) [2], 1.22e+06 Copies/Cell; in the assay with human CD20 (human) [3], 1.48e+06 Copies/Cell; with human CD20 (human) [4] it was 388000 Copies/Cell.

The values above are taken from patent publication US20150201588A1.
